Measurements reported in patent US20210002363A1 (PHANES THERAPEUTICS, published 2021).
One block for each binder: values may come before it.

Tests used:
[1] = molecular target: T1, Recombinant extracellular domain of human FOLR1 (Novoprotein, Cat#: C784) (human, UniProt P15328 25-233, limits assumed); assay: ELISA on plate-coated recombinant human FOLR1 extracellular domain; anti-human IgG-HRP; O.D. 450 nm
T1 construct: Bought reagent; also called recombinant FOLR1; immobilized FOLR1 extracellular domain
Method: The Purified chimeric mAbs were tested in an ELISA assay for their ability to bind to immobilized human FOLR1. Recombinant extracellular domain of human FOLR1 (Novoprotein, Cat#: C784) in carbonate coating buffer was coated on a 96-well plate at room temperature for 1 hour. The plate is blocked by 5% BSA in TBST for 1 hour at room temperature. In each well of an individual plate, mAbs at various concentrations were incubated for 1 hour at room temperature. The plate was washed and the binding to FOLR1 was detected by anti-human IgG conjugated to horseradish peroxidase (hIgG-HRP) (ThermoFisher Scientific, Cat#: H10007) with incubation for 1 hour at room temperature. Then after washing, the ELISA was developed using One-step Detection Solution (ThermoFisher Scientific, Cat#: 34028) and measured as the absorbance at 450 nm.

[2] = molecular target: T1, Recombinant extracellular domain of …; assay: SPR (Biacore 8k), mAb captured on protein A chip, recombinant FOLR1 as analyte, 1:1 model
Method: The interaction of the chimeric anti-FOLR1 mAbs and FOLR1 was measured by Surface Plasmon Resonance (SPR) (Biacore 8k, GE Healthcare). Briefly, an anti-FOLR1 mAb was immobilized to a protein A sensor chip (GE Healthcare, Cat#: 29-1275-56) in HBS-P buffer (0.01 M HEPES pH 7.4, 0.15 M NaCl, 0.05% v/v Surfactant P20) with an injection flow rate at […]. The recombinant FOLR1 (Novoprotein, Cat#: C784) at variant concentrations was loaded with the flow rate of 30 μL/min in HBS-P buffer. Following antigen loading, the surface was regenerated with 10 mM glycine-HCl (pH 1.5). Sensor grams were fit with a 1:1 binding model using Biacore 8k evaluation software (GE Healthcare).

[3] = molecular target: T2, FOLR1 on SK-OV-3 cells (ATCC HTB-77) (Homo sapiens (Human), UniProt P15328 25-234); assay: FACS on SK-OV-3 cells; Alexa Fluor 488 F(ab')2 goat anti-human IgG Fc; MFI
T2 construct: Endogenous FOLR1 of the cell line; also called cells that are known to express FOLR1
Method: To assess the binding of the chimeric anti-FOLR1 mAbs to cells that are known to express FOLR1, SK-OV-3 (ATCC® HTB-77™) cells were plated at 80,000 cells per well on a 96-well non-binding U-bottom plate (Greiner Bio-One, Cat#: 650901). In some experiments, 90,000 cells per well were used. The cells were incubated in 50 μL FACS buffer (HBSS with 0.1% BSA and 0.05% sodium azide) containing mAbs at different concentrations on ice for 15 minutes. After wash, cells were incubated in 50 μL FACS buffer containing 3.5 μg/mL F(ab′)2-Goat anti-Human IgG Fc conjugated to Alexa Fluor® 488 (Invitrogen, Cat#: H10120) on ice for 15 minutes in dark and washed again. Cells were analyzed using an Attune NxT flow cytometer. MFI, mean fluorescence intensity.

[4] = molecular target: T3, full-length human FOLR1 on stably transfected CHO cells (human, UniProt P15328 25-234); assay: FACS on CHO cells stably expressing full-length human FOLR1; PE goat anti-mouse IgG; MFI
T3 construct: also called CHO cells stably expressing human FOLR1
Method: CHO cells stably transfected with full-length human FOLR1 were transferred to a 96-well plate at 200,000 cells/well, washed once with FACS buffer (1×PBS, pH6.8+2% FBS) and incubated with purified mouse anti-FOLR1 mAbs from hybridoma supernatants at various concentrations for 15 minutes on ice. Cells were then centrifuged at 1,000 rpm for 5 minutes and washed with FACS buffer three times. The cells were incubated with PE-conjugated goat anti-mouse IgG polyclonal antibodies and incubated on ice for another 15 minutes. Cells were then washed with FACS buffer three times and then resuspended in FACS buffer containing 0.1 μg/ml PI (propidium iodide) for live/dead cell gating. Cells were then run through the FACS Caliber instrument and the data were analyzed by the Flowjo software. MFI, mean fluorescence intensity.

[5] = molecular target: T2, FOLR1 on SK-OV-3 cells (ATCC HTB-77); assay: FACS on SK-OV-3 cells; MFI
[6] = molecular target: T1, Recombinant extracellular domain of …; assay: ELISA on immobilized FOLR1 extracellular domain; O.D. 450 nm

T3 sequence (P15328 25-234 limits assumed): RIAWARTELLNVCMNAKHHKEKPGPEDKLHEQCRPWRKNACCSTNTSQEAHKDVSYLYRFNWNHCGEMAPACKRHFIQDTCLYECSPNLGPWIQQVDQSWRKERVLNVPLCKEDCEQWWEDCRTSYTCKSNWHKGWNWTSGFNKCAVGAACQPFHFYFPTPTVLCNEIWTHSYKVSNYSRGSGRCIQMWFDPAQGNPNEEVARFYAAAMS
T2 sequence (P15328 25-234 limits assumed): as above
T1 sequence (P15328 25-233 limits assumed): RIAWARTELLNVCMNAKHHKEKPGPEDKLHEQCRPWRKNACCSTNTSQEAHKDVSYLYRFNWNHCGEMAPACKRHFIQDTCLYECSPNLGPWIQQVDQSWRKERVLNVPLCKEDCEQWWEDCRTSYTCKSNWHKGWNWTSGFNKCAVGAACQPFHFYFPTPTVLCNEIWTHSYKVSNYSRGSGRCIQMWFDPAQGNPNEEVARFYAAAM

B1: chimeric anti-FOLR1 mAb F7 (antibody, V domains shown)
VH: EFQLQQSGPELVKPGASVKISCKASGYSFTDYNMNWVKQSNGKSLEWIGVIDPNYGTTNYNQKFVGKATLTVDQSSITAYMQLNSLTAEDSAVYFCAIKGYGNPAAYWGQGTLVTVSA
VL: DIQMTQSPSSLSASLGGKVTITCKASQDINKYLAWYQHEPGKGPRLLIRYTSILESGIPSRFSGSGSGRDYSFSISNLEPEDIATYYCLQYYNLWTFGGGTKLEIK
notes: also called Chimeric mAb F7
EC50 (read off the curve) [1]: ~0.1 nM | Kd [2]: 2.33 nM | EC50 (read off the curve) [3]: ~0.2 nM

B4: chimeric anti-FOLR1 mAb F20 (antibody, V domains shown)
VH: QVQLQQSGAELVKPGASVQLSCKASGYTFASYYLYWVKQRPGQGLEWIGEINPRSGGTNFNEKFKSKATVTVDKSSSTAYMQLSSLTSEDSAVYYCSRSGRLRGFYTMDYWGQGTSVTVSS
VL: NIVMTQSPKSMSVSVGERVTLSCKAGENVGSYVSWYQQKPEQSPELLIYGASNRYTGVPDRFTGSGSATDFTLTISSVQAEDLADYYCGQTYRFLTFGAGTKLELK
notes: also called Chimeric mAb F20
Kd [2]: 1 nM

B10: F20-H1L1 (antibody, V domains shown)
VH: QVQLVQSGAEVKKPGSSVKVSCKASGYTFASYYLYWVRQAPGQGLEWIGEINPRSGGTNFNEKFKSRATVTVDKSTSTAYMELSSLRSEDTAVYYCSRSGRLRGFYTMDYWGQGTLVTVSS
VL: DIVMTQSPDSLAVSLGERATINCKAGENVGSYVSWYQQKPGQPPKLLIYGASNRYTGVPDRFSGSGSATDFTLTISSLQAEDVAVYYCGQTYRFLTFGQGTKVEIK
notes: also called humanized F20 mAb H1L1
EC50 (read off the curve) [5]: 1 to 2 nM

B11: F20-H3L2 (antibody, V domains shown)
VH: QVQLVQSGAEVKKPGSSVKVSCKASGYTFASYYLYWVRQAPGQGLEWIGEINPRSGGTNFNEKFKSKATVTVDKSTNTAYMELSSLRSEDTAVYYCSRSGRLRGFYTMDYWGQGTLVTVSS
VL: DIVMTQSPDSLAVSLGERATINCKAGENVGSYVSWYQQKPGQSPKLLIYGASNRYTGVPDRFSGSGSATDFTLTISSLQAEDVAVYYCGQTYRFLTFGQGTKVEIK
notes: also called humanized F20 mAb H3L2
EC50 (read off the curve) [5]: 1 to 2 nM

B13: F5-H3L2 (antibody, V domains shown)
VH: EVQLVESGGGLVQPGGSLRLSCAVSGFTFSNYGMSWVRQAPGKGLEWVATISSGGSYTYYPDSVKGRFTISRDNSKNTLYLQMSSLRAEDTAVYYCSTQGSSGYVGYWGQGTLVTVSS
VL: DIQMTQSPSSVSASVGDRVTITCKASQDITNFIGWYQHKPGKAPKLLISYTSILESGVPSRFSGSGSGTDYTLTISSLQPEDFATYYCLQYYNLWTFGGGTKVEIK
notes: also called humanized F5 mAb H3L2
binding result [6]: binds

B14: mouse anti-FOLR1 mAb F17 (purified from hybridoma supernatant) (antibody, V domains shown)
VH: DVQLVESGGGLVQPGGSRKLSCAASGFTFSDFGMHWIRQAPERGLEWVAYMSYTPGTFHYADTVKDRFFISRDNAKNTLFLQMTSLRSDDTAMYYCARVHVGTVDYWGQGTSVTVSS
VL: DVVLTQSPATLSVTPGDSVSLSCRASQNINNNLHWFQQKSHESPRLLIKYASQSISGIPSRFSGSGSGTDFTLSINNVETEDFGIYFCQQSNSWPALTFGTGTKVELK
notes: Mouse antibody from hybridoma, purified on Protein A, detected with anti-mouse IgG; also called mAb clone F17
EC50 (read off the curve) [4]: ~0.3 mg/L

Continued, values first:

EC50 (read off the curve) [4]: ~0.1 mg/L
B2: mouse anti-FOLR1 mAb F7 (purified from hybridoma supernatant) (antibody, V domains shown)
VH: EFQLQQSGPELVKPGASVKISCKASGYSFTDYNMNWVKQSNGKSLEWIGVIDPNYGTTNYNQKFVGKATLTVDQSSITAYMQLNSLTAEDSAVYFCAIKGYGNPAAYWGQGTLVTVSA
VL: DIQMTQSPSSLSASLGGKVTITCKASQDINKYLAWYQHEPGKGPRLLIRYTSILESGIPSRFSGSGSGRDYSFSISNLEPEDIATYYCLQYYNLWTFGGGTKLEIK
notes: Mouse antibody from hybridoma, purified on Protein A, detected with anti-mouse IgG; also called mAb clone F7

Kd [2]: 11.8 nM
B3: chimeric anti-FOLR1 mAb F19 (antibody, V domains shown)
VH: EVKLDETGGGLVQPGRPMKLSCVASGFTFSDYWMNWVRQSPDKGLEWVAQIGNKFHNYETYYSDSVKGRFTISRDDSKSSVYLQMNSLRVEDTGIYYCTKLGRGYYVMDYWGQGTSVTVSS
VL: DIQMTQTTSSLSASLGDRVTLNCRASQDITNHLNWFQQKPDGTFQLLIYYTSRLHSGVPSRFSGSGSGTDYSLTISNLEQEDFATYFCQQDSQHPWTFGGGTKLEIK
notes: also called Chimeric mAb F19

EC50 (read off the curve) [1]: ~0.2 nM | Kd [2]: 0.547 nM | EC50 (read off the curve) [3]: ~0.5 nM
B5: chimeric anti-FOLR1 mAb F4 (antibody, V domains shown)
VH: EVQLVESGGGLVKPGGSLKLSCAASGFTFSDYGMHWVRQAPEKGLEWVAFISSGSNTIYYADIVKGRFAISRDNAKNTLFLQMASLRSEDTALYYCARLAEWDVAYWGQGTLVTVSA
VL: DIVLTQSPATLSVTPGDRISLSCRASQNINNNLHWYQQKSHESPRLLIKFASQSISGIPSRFSGSGSGTDFTLNINGVETEDFGMYFCQQIYSWPQLTFGAGTRLELK
notes: also called Chimeric mAb F4

EC50 (read off the curve) [4]: ~1 mg/L
B6: mouse anti-FOLR1 mAb F4 (purified from hybridoma supernatant) (antibody, V domains shown)
VH: EVQLVESGGGLVKPGGSLKLSCAASGFTFSDYGMHWVRQAPEKGLEWVAFISSGSNTIYYADIVKGRFAISRDNAKNTLFLQMASLRSEDTALYYCARLAEWDVAYWGQGTLVTVSA
VL: DIVLTQSPATLSVTPGDRISLSCRASQNINNNLHWYQQKSHESPRLLIKFASQSISGIPSRFSGSGSGTDFTLNINGVETEDFGMYFCQQIYSWPQLTFGAGTRLELK
notes: Mouse antibody from hybridoma, purified on Protein A, detected with anti-mouse IgG; also called mAb clone F4

EC50 (read off the curve) [4]: ~0.5 mg/L
B7: mouse anti-FOLR1 mAb F8 (purified from hybridoma supernatant) (antibody, V domains shown)
VH: EVMLVESGGGLVKPGGSLKLSCVASGFTLSTYAMSWVRQTPEKRLEWVATISGGGGDTYHLDTVKGRFTISRDNAKNTLYLQMSSLRSEDTALYYCARQSHYGSSYYFDNWGQGTTLTVSS
VL: DIQMTQSPASLSASVGEIVTIICRVSENIDSYLAWYQQKQGKSPQLLVYAATNLADGVPSRFSGSGSGSQYSLKINSLQSEDVARYYCQHYYTTPPTFGGGTKLDIK
notes: Mouse antibody from hybridoma, purified on Protein A, detected with anti-mouse IgG; also called mAb clone F8

Kd [2]: 0.721 nM
B8: chimeric anti-FOLR1 mAb F8 (antibody, V domains shown)
VH: EVMLVESGGGLVKPGGSLKLSCVASGFTLSTYAMSWVRQTPEKRLEWVATISGGGGDTYHLDTVKGRFTISRDNAKNTLYLQMSSLRSEDTALYYCARQSHYGSSYYFDNWGQGTTLTVSS
VL: DIQMTQSPASLSASVGEIVTIICRVSENIDSYLAWYQQKQGKSPQLLVYAATNLADGVPSRFSGSGSGSQYSLKINSLQSEDVARYYCQHYYTTPPTFGGGTKLDIK
notes: also called Chimeric mAb F8

EC50 (read off the curve) [5]: 1 to 2 nM
B9: F20-H3L1 (antibody, V domains shown)
VH: QVQLVQSGAEVKKPGSSVKVSCKASGYTFASYYLYWVRQAPGQGLEWIGEINPRSGGTNFNEKFKSKATVTVDKSTNTAYMELSSLRSEDTAVYYCSRSGRLRGFYTMDYWGQGTLVTVSS
VL: DIVMTQSPDSLAVSLGERATINCKAGENVGSYVSWYQQKPGQPPKLLIYGASNRYTGVPDRFSGSGSATDFTLTISSLQAEDVAVYYCGQTYRFLTFGQGTKVEIK
notes: also called humanized F20 mAb H3L1

binding result [6]: binds
B12: F5-H3L1 (antibody, V domains shown)
VH: EVQLVESGGGLVQPGGSLRLSCAVSGFTFSNYGMSWVRQAPGKGLEWVATISSGGSYTYYPDSVKGRFTISRDNSKNTLYLQMSSLRAEDTAVYYCSTQGSSGYVGYWGQGTLVTVSS
VL: DIQMTQSPSSVSASVGDRVTITCKASQDITNFIGWYQHKPGKAPKLLISYTSILESGVPSRFSGSGSGRDYTLTISSLQPEDFATYYCLQYYNLWTFGGGTKVEIK
notes: also called humanized F5 mAb H3L1
